Laboratory results published in the supplement of paper PMC7877785.
± gives the uncertainty stated by the source.

Assay: self-splicing fitness, log relative to wild type (ln ratio); higher = more splicing; Tetrahymena group I intron in knt gene, E. coli kanamycin selection, DiMSum; sequences stand for … in CUCUCU…GGAGGGAAAAGUUAUCAGGCAUGCACCUGGUAGCUAGUCUUUAAACCAAUAGAUUGCAUCGGUUUAAAAGGCAAGACCGUCAAAUUGCGGGAAAGGGGUCAACAGCCGUUCAGUACCAAGUCUCAGGGGAAACUUUGAGAUGGCCUUGCAAAGGGUAUGGUAAUAAGCUGACGGACAUGGUCCUAACCACGCAGCCAAGUCCUAAGUCAACAGAUCUUCUGUUGAUAUGGAUGCAGUUCACAGACUAAAUGUCGGUCGGGGAAGAUGUAUUCUUCUCAUAAGAUAUAGUCGGACCUCUCCUUAAUGGGAGCUAGCGGAUGAAGUGAUGCAACACUGGAGCCGCUGGGAACUAAUUUGUAUGCGAAAGUAUAUUGAUUAGUUUUGGAGUACUCGUGGUCG
Outline: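 Pooled colonies went to amplicon sequencing on an Illumina HiSeq 2500 after six replicate transformations. The plates were LB agar with 100 μg/mL carbenicillin, 50 μM IPTG and 0.2% rhamnose, with or without 25 μg/mL kanamycin, incubated overnight at 37°C or 30°C. The E. coli BL21(DE3) library had all eight P1ex-region intron nucleotides randomised, the intron placed in the knt kanamycin-resistance gene on pET-22b(+). DiMSum fitness is the error-weighted combination of replicate fold changes, kanamycin against none, normalised to wild type.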

Sequence	self-splicing fitness (ln) (30 °C)	self-splicing fitness (ln) (37 °C)
AAAAAGCAAUAUUACGAACG	-0.0786 ± 0.076	-0.303 ± 0.1
AAAAAGCAAUAUUACGAAGC	–	-1.85 ± 0.22
AAAAAGCAAUAUUACGACCG	-0.107 ± 0.13	-0.00629 ± 0.17
AAAAAGCAAUAUUACGACGC	-0.27 ± 0.086	-0.264 ± 0.1
AAAAAGCAAUAUUACGAGAA	-2.33 ± 0.33	-0.686 ± 0.27
AAAAAGCAAUAUUACGAGGA	-2.86 ± 0.16	-2.21 ± 0.15
AAAAAGCAAUAUUACGAUAG	-3.26 ± 0.17	-1.11 ± 0.15
AAAAAGCAAUAUUACGAUUG	-1.86 ± 0.093	-1.67 ± 0.13
AAAAAGCAAUAUUACGCAUG	-0.952 ± 0.066	0.04 ± 0.074
AAAAAGCAAUAUUACGCCAG	-2.24 ± 0.14	-2.24 ± 0.23
AAAAAGCAAUAUUACGCGGA	-1.95 ± 0.11	-0.504 ± 0.11
AAAAAGCAAUAUUACGCGUG	-1.12 ± 0.064	-1.18 ± 0.076
AAAAAGCAAUAUUACGCGUU	-2.73 ± 0.11	-1.44 ± 0.11
AAAAAGCAAUAUUACGCUCC	-1.14 ± 0.13	-0.319 ± 0.17
AAAAAGCAAUAUUACGCUCU	-1.08 ± 0.081	-0.167 ± 0.09
AAAAAGCAAUAUUACGGAAU	-2.25 ± 0.11	-1.36 ± 0.13
AAAAAGCAAUAUUACGGCUG	-0.648 ± 0.085	-0.345 ± 0.13
AAAAAGCAAUAUUACGGGAG	-2.11 ± 0.11	-1.04 ± 0.12
AAAAAGCAAUAUUACGGGGU	-3.62 ± 0.16	-2.32 ± 0.17
AAAAAGCAAUAUUACGUAAA	-1.82 ± 0.086	-1.19 ± 0.09
AAAAAGCAAUAUUACGUAGA	-2.21 ± 0.062	-1.33 ± 0.065
AAAAAGCAAUAUUACGUAGC	-3.26 ± 0.15	-1.64 ± 0.12
AAAAAGCAAUAUUACGUGAC	-2.84 ± 0.14	-2.31 ± 0.17
AAAAAGCAAUAUUACGUGCG	-0.427 ± 0.052	-0.846 ± 0.064
AAAAAGCAAUAUUACGUGUU	-2.04 ± 0.055	-1.22 ± 0.068
AAACAGCAAUAUUACGAGAA	–	-1.95 ± 0.17

Sequence	self-splicing fitness (ln) (30 °C)	self-splicing fitness (ln) (37 °C)
AAACAGCAAUAUUACGAGAC	-3.96 ± 0.25	-2.66 ± 0.25
AAACAGCAAUAUUACGAGUA	-1.79 ± 0.1	-1.68 ± 0.11
AAACAGCAAUAUUACGAUAC	-2.44 ± 0.11	-1.37 ± 0.14
AAACAGCAAUAUUACGAUCU	-0.534 ± 0.063	0.138 ± 0.076
AAACAGCAAUAUUACGCAAG	-2.56 ± 0.13	-1.8 ± 0.14
AAACAGCAAUAUUACGCACA	-0.828 ± 0.085	0.269 ± 0.1
AAACAGCAAUAUUACGCAGC	-1.83 ± 0.14	-1.98 ± 0.23
AAACAGCAAUAUUACGCGGC	-3.54 ± 0.12	-2.7 ± 0.12
AAACAGCAAUAUUACGCGUG	-1.42 ± 0.052	-0.0443 ± 0.066
AAACAGCAAUAUUACGCUAG	-1.39 ± 0.095	-1.12 ± 0.13
AAACAGCAAUAUUACGCUGG	-2.53 ± 0.12	-2.62 ± 0.2
AAACAGCAAUAUUACGGAAA	-3.16 ± 0.18	-1.8 ± 0.13
AAACAGCAAUAUUACGGCAC	-1.72 ± 0.083	-0.057 ± 0.1
AAACAGCAAUAUUACGGCAG	-2.08 ± 0.099	-0.063 ± 0.1
AAACAGCAAUAUUACGGCCA	-1.41 ± 0.11	-0.0737 ± 0.12
AAACAGCAAUAUUACGGGCU	-3.15 ± 0.12	-1.95 ± 0.13
AAACAGCAAUAUUACGGUAA	-2.28 ± 0.1	-0.892 ± 0.083
AAACAGCAAUAUUACGGUCC	-2.09 ± 0.12	-0.775 ± 0.11
AAACAGCAAUAUUACGUCAU	-3.39 ± 0.12	-1.55 ± 0.085
AAACAGCAAUAUUACGUCCA	-1.19 ± 0.065	-0.777 ± 0.073
AAACAGCAAUAUUACGUCUA	-1.21 ± 0.065	-0.311 ± 0.07
AAACAGCAAUAUUACGUCUC	-3.42 ± 0.15	-2.31 ± 0.16
AAACAGCAAUAUUACGUGUA	-2.6 ± 0.1	-1.41 ± 0.089
AAACAGCAAUAUUACGUGUU	-4.29 ± 0.15	-2.24 ± 0.11
AAACAGCAAUAUUACGUUUA	-2.11 ± 0.1	-0.623 ± 0.078
AAACAGCAAUAUUACGUUUG	-2.49 ± 0.1	-1.51 ± 0.099

Sequence	self-splicing fitness (ln) (30 °C)	self-splicing fitness (ln) (37 °C)
AAAGAGCAAUAUUACGAAAU	-2.67 ± 0.23	-2.4 ± 0.24
AAAGAGCAAUAUUACGACUC	-1.4 ± 0.071	-0.537 ± 0.1
AAAGAGCAAUAUUACGAGAA	-2.11 ± 0.46	–
AAAGAGCAAUAUUACGAUCA	-3.02 ± 0.21	-1.68 ± 0.14
AAAGAGCAAUAUUACGCAAC	-2.78 ± 0.26	-1.77 ± 0.42
AAAGAGCAAUAUUACGCCAG	-3.87 ± 0.35	-0.837 ± 0.21
AAAGAGCAAUAUUACGCCAU	-3.65 ± 0.22	-2.55 ± 0.29
AAAGAGCAAUAUUACGCCUU	-3.49 ± 0.29	-1.81 ± 0.23
AAAGAGCAAUAUUACGCGCU	-2.96 ± 0.4	–
AAAGAGCAAUAUUACGCUAU	–	-2.46 ± 0.21
AAAGAGCAAUAUUACGGAAC	–	-2.8 ± 0.44
AAAGAGCAAUAUUACGGAGU	-3.33 ± 0.2	-3.16 ± 0.26
AAAGAGCAAUAUUACGGCAU	-1.83 ± 0.087	-0.726 ± 0.097
AAAGAGCAAUAUUACGGCGU	-1.87 ± 0.098	0.269 ± 0.094
AAAGAGCAAUAUUACGGUCC	-3.16 ± 0.44	-0.864 ± 0.38
AAAGAGCAAUAUUACGUAGU	-2.39 ± 0.16	-2.46 ± 0.22
AAAGAGCAAUAUUACGUAUU	-3.03 ± 0.2	-1.2 ± 0.14
AAAGAGCAAUAUUACGUCGA	-3.5 ± 0.27	-2.09 ± 0.18
AAAGAGCAAUAUUACGUCGU	-3.75 ± 0.26	-2.62 ± 0.17
AAAGAGCAAUAUUACGUGCU	-3.28 ± 0.22	-2.82 ± 0.25
AAAGAGCAAUAUUACGUUAC	-2.94 ± 0.31	–
AAAUAGCAAUAUUACGAAAC	-3.4 ± 0.27	-1.76 ± 0.18
AAAUAGCAAUAUUACGAAAU	-3.02 ± 0.15	-1.2 ± 0.13
AAAUAGCAAUAUUACGAAUG	-1.37 ± 0.12	-1.62 ± 0.16
AAAUAGCAAUAUUACGACAA	-0.727 ± 0.1	-0.284 ± 0.1
AAAUAGCAAUAUUACGAGAG	-4.01 ± 0.3	-2.49 ± 0.28
